Experimental data taken from patent US20240199757A1 (UNIVERSITY OF CHICAGO, published 2024).

T1: Full-length human NT5E (recombinant, in-house) (human, UniProt P21589 27-549)
T1 construct: also called hNT5E; hNT5EWT
T1 sequence: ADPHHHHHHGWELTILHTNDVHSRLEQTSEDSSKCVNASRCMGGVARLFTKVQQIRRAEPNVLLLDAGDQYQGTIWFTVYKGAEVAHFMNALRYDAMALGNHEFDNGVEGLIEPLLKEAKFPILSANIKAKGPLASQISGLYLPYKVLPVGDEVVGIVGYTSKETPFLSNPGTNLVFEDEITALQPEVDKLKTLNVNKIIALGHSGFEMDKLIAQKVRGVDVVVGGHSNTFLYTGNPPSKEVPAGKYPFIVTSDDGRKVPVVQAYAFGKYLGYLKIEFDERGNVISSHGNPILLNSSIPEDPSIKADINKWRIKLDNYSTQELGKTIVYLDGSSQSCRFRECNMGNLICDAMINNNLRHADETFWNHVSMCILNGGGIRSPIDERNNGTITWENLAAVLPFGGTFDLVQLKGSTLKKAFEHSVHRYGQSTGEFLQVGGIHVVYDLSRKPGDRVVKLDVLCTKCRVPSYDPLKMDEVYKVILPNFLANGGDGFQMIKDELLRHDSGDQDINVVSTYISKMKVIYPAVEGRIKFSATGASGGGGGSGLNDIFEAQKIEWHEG

T2: Full-length cynomolgus NT5E (recombinant) (cynomolgus, UniProt P21589 27-549 (human entry))
T2 construct: also called cNT5E; cyno NT5E
T2 chain: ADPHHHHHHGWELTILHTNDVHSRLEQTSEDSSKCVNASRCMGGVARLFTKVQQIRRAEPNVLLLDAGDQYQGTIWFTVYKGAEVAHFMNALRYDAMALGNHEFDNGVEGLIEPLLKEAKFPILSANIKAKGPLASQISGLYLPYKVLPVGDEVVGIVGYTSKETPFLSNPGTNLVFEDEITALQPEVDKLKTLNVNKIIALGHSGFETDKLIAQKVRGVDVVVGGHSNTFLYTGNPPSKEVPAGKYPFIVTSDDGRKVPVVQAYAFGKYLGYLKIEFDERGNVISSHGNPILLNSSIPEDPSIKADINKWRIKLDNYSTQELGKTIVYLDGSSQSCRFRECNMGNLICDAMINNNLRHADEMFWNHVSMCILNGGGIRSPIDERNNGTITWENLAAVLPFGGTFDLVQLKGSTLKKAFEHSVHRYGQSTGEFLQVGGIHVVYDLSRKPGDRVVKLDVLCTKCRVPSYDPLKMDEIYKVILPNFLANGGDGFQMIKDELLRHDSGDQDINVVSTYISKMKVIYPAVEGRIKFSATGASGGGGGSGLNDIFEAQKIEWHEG

T3: N-terminal domain of human NT5E (human, UniProt P21589 27-335)
T3 construct: also called N-terminal hNT5E
T3 sequence: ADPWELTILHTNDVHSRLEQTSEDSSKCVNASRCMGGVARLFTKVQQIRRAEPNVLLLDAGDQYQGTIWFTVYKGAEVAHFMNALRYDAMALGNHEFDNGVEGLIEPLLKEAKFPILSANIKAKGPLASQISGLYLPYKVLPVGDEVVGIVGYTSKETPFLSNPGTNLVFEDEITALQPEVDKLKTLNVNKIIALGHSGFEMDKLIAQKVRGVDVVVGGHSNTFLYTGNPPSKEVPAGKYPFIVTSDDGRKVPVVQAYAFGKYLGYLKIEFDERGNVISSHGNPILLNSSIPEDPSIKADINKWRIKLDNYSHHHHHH


Columns and labels:
[1] = target: T1, Full-length human NT5E (recombinant, …); assay: SPR, His-captured NT5E, no ATP
Experimental: (§1) All SPR experiments were performed at 25° C. using MASS-1 (Bruker) instrument. hNT5E, mNT5E and cNT5E were immobilized onto a nitrilotriacetic acid (NTA) sensor chip via His-tag. For kinetic experiments, after ligand immobilization, 2-fold serial dilutions of the Fabs were injected. After double-reference subtraction data were analyzed with BiaEvaluation (GE Healthcare) or Sierra Analyser (Bruker) software. The experiments were carried in buffers in presence and absence of 1 mM ATP to compare the kinetic parameters of the Fabs binding to closed and open form of NT5E.

[2] = target: T2, Full-length cynomolgus NT5E …; assay: SPR, His-captured NT5E, no ATP
Experimental: as §1

[3] = target: T1, Full-length human NT5E (recombinant, …); assay: ELISA, biotinylated NT5E on neutravidin plate, 1 mM ATP
Experimental: (B) Protein ELISA: Protein-based multipoint ELISA was performed to estimate the affinity of the generated Fabs and IgGs to NT5E. The binding of the Fabs and IgGs to the closed form of NT5E were determined in ELISA buffer (HBST) supplemented with 10 μM zinc chloride and 1 mM ATP while the binding of the same to open form of NT5E were determined in ELISA buffer (HBST) without any cofactors. A fixed concentration of the immobilized target (50 nM) on ELISA plate was incubated with 3-fold serial dilutions of the purified Fabs and IgGs starting from 3 μM and 1 μM respectively for 15 min. The plates were washed and were subsequently incubated with a secondary HRP-conjugated anti-protein L monoclonal antibody (#32420, ThermoFisher, 1:6000 dilution). As with phage ELISA, the plates were again washed, developed with TMB substrate and quenched with 1.0 M HCl, and absorbance (Abs450) was determined. To determine the affinity (EC50), the data were fitted with a non-linear, 4-parameter logistic curve in OriginLab.

[4] = target: T3, N-terminal domain of human NT5E; assay: SPR, His-captured N-terminal domain, single injection, ATP-free buffer
Experimental: as §1
In the domain binding experiments, full-length, N-terminal, and C-terminal hNT5E were immobilized as described above.

Row | Binder | Kd [1] | koff [1] | kon [1] | Kd [2] | koff [2] | EC50 [3] | binding result [4]
1 | 1789 Fab (Fab, V domains shown) VH: EVQLVESGGGLVQPGGSLRLSCAASGFNVSYSSIHWVRQAPGKGLEWVASISSSSGYTYYADSVKGRFTISADTSKNTAYLQMNSLRAEDTAVYYCARNYWGWYPFYYFAFDYWGQGTLVTV VL: DIQMTQSPSSLSASVGDRVTITCRASQSVSSAVAWYQQKPGKAPKLLIYSASSLYSGVPSRFSGSRSGTDFTLTISSLQPEDFATYYCQQGWDYPITFGQGTKVEIKR | 760 nM | 0.044 s⁻¹ | 57000 M⁻¹ s⁻¹ | 150 nM | 0.02 s⁻¹ | 37 nM | no binding (tested: 200 nM)
2 | 1789 IgG (antibody, V domains shown) VH: EVQLVESGGGLVQPGGSLRLSCAASGFNVSYSSIHWVRQAPGKGLEWVASISSSSGYTYYADSVKGRFTISADTSKNTAYLQMNSLRAEDTAVYYCARNYWGWYPFYYFAFDYWGQGTLVTVSS VL: DIQMTQSPSSLSASVGDRVTITCRASQSVSSAVAWYQQKPGKAPKLLIYSASSLYSGVPSRFSGSRSGTDFTLTISSLQPEDFATYYCQQGWDYPITFGQGTKVEIKR | – | – | – | – | – | 0.86 nM | –
